{"source": "paper PMC11367332", "about": "“Neutralizing IL-38 activates γδ T cell-dependent antitumor immunity and sensitizes for chemotherapy” (Journal for Immunotherapy of Cancer, 2024)", "molecules": {"B1": {"name": "Fab e04 (Fab, V domains shown)", "VH": "EVQLVESGGGLVQPGGSLRLSCAASGFSFSSSSIHWVRQAPGKGLEWVASISPYYSYTSYADSVKGRFTISADTSKNTAYLQMNSLRAEDTAVYYCARTVRGSKKPYFSGWAMDYWGQGTLVTVSS", "VL": "DIQMTQSPSSLSASVGDRVTITCRASQSYYSYVAWYQQKPGKAPKLLIYSASSLYSGVPSRFSGSRSGTDFTLTISSLQPEDFATYYCQQVFAPITFGQGTKVEIK", "notes": "heavy chain (Fd) of Fab e04 from a synthetic Fab-phage library; light chain of Fab e04 from a synthetic Fab-phage library; Selected by phage display against murine IL-38; the library is described in the online supplemental methods; also called anti-IL-38 Fab fragment; source: E. coli BL21, purified (HiTrap Protein G)"}, "B2": {"name": "e04 IgG (Fab e04 converted into full-length IgG1) (antibody, V domains shown)", "VH": "B1 VH", "VL": "B1 VL", "notes": "variable part as the heavy chain of m2 (PDB 8Q3J), converted into full-length IgG1 format; as the light chain of m2 (PDB 8Q3J); IgG1; also called IgG e04; anti-IL-38 antibody (e04); source: Expi293F, transfected, purified from supernatant (HiTrap Protein G)"}, "B3": {"name": "Fab e04: Fab fragment selected by phage display from a synthetic Fab-phage library, binds murine IL-38 (antibody, V domains shown)", "VH": "B1 VH", "VL": "B1 VL"}, "B4": {"name": "IgG e04: Fab e04 converted into full-length IgG1 format; in-house generated IL-38 neutralizing antibody (antibody, V domains shown)", "VH": "B1 VH", "VL": "B1 VL"}}, "key": {"CD8+ T cells": {"tested_on": "CD8+ T cells", "assay": "CD8+ T-cell proliferation assay (co-culture with cDC1)", "assay_type": "cell-based, mouse", "conditions": "5 µM added daily", "protocol": "CD8+ T cells from murine spleen and cDC1 from PyMT tumors treated in vivo with anti-IL-38 antibodies were isolated by FACS-sorting. CD8+ T cells and cDC1 were co-cultured at a ratio of 1:40 in the T-cell medium. Cells were pre-incubated with either 100 nM anti-IL-38 or 100 nM IgG isotype control, activated with mouse T-cell activator CD3/CD28 Dynabeads (Thermo Fisher Scientific) and supplemented with 10 ng/mL rm IL-2 (PrepoTech) at days 0, 2 and 5 and 50 μM β-mercaptoethanol daily. For the Notch signaling blockade, 5 µM γ-secretase inhibitor DAPT (Abcam) was added daily. For CD8+ T cell culture, 100 ng/mL rm IL-38 (AdipoGen) was added daily. Supernatants were collected for cytokine determination at days 3, 5 and 7 and cell proliferation was analyzed by flow cytometry.\nTo measure the cytokines in PyMT tumors and cell culture supernatants, Cytometric Bead Array Flex Sets (BD Biosciences) were used for murine IL-17A and IFN-γ. The samples were acquired via FACS and analyzed with FlowJo Software V.10 (Tree Star)."}, "PyMT tumors [1]": {"tested_on": "PyMT tumors", "assay": "Therapeutic model of chemoresistance in PyMT mice (doxorubicin with or without anti-IL-38)", "assay_type": "in vivo, mouse", "from_the_text": "The C57BL/6N IL-38 knockout (KO) strain was previously described.[10] For the polyoma virus middle T oncoprotein (PyMT) model, IL-38 KO mice were crossed with the PyMT mammary carcinoma strain, previously bred into a C57BL/6 background.[19] Only female PyMT mice were used. Tumor development in PyMT wildtype (WT) versus IL-38 KO mice was monitored once a week for up to 8 weeks, starting at 12 weeks using electronic calipers. For IL-38 neutralization, PyMT WT mice were intraperitoneally (i.p.) injected with 100 µg of either anti-IL-38 antibody (e04, in-house generated) or IgG1 (Human IgG1, Bio X Cell) isotype control. […] The treatment started at week 13 and tumor growth was monitored once a week. Group sizes were determined based on prior experience with the model. […]\n(§1) For preparing single-cell suspensions, PyMT tumors were processed with the Tumor Dissociation Kit (Miltenyi Biotec) and gentleMACS Dissociator (Miltenyi Biotec) according to standard protocols. […] Samples were acquired with an FACSymphony A5 or FACSymphony S6 flow cytometer (BD Bioscience) and the data was analyzed in FlowJo software V.10 (Tree Star). […] For the gating strategy, fluorescence minus one controls were applied. […]"}, "[2]": {"target": "T1, mIL-38-Avi (murine IL-38 with Avi tag) (Mus musculus, UniProt Q8R459)", "T1 construct": "interleukin-38 (IL-38, IL-1 family member 10), mouse; PDB 8Q3J holds mIL-38 and may show the limits of the construct; also called mouse IL-38", "assay": "BLI; Octet RED96; mIL-38-Avi immobilised on streptavidin biosensors at 2 µg/mL; Fab from 250 to 7.8 nM in 1:1 dilution steps; 150 mM NaCl, 50 mM Tris-HCl pH 7.5, 0.1% BSA, 0.02% Tween 20; 1:1 analyte model with global fit", "conditions": "both partners purified"}, "[3]": {"target": "T1, mIL-38-Avi (murine IL-38 with Avi tag)", "assay": "BLI; Octet RED96; mIL-38-Avi immobilised on streptavidin biosensors at 2 µg/mL; IgG from 250 to 7.8 nM in 1:1 dilution steps; 150 mM NaCl, 50 mM Tris-HCl pH 7.5, 0.1% BSA, 0.02% Tween 20; 1:2 bivalent model", "conditions": "both partners purified"}, "murine IL-38": {"target": "T2, murine IL-38 (Mus musculus, UniProt Q8R459)", "T2 construct": "purchased AdipoGen AG-40B-0101-C010", "T2 sequence (Q8R459 1-152)": "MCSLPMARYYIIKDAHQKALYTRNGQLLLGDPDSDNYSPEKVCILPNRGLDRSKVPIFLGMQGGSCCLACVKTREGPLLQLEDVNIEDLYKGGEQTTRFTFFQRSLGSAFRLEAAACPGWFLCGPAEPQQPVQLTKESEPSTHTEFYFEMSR", "assay": "Neutralization of IL-38 effect on IL-17 production by splenic γδ T cells", "assay_type": "cell-based", "conditions": "γδ T cells on anti-CD3 plates, IL-1 and IL-23 + IL-38 and Fab, supernatants after 5 days", "protocol": "Figure 2 IL-38 neutralization slows down tumor development and increases T-cell infiltrates into tumors. (A) Kinetic analysis and dissociation constants (Kd) of Fabs e04 and h06 selected by phage display binding to mouse IL-38 determined by biolayer interferometry. (B) Mouse splenic γδ T cells were seeded on anti-CD3 coated plates and treated with IL-1 and IL-23 + IL-38 and Fab fragments putatively recognizing […] murine IL-38. IL-17 levels in supernatants were analyzed after 5 days. Unrelated Fab fragments c05 and d09 were used as negative controls. Data are from four independent experiments. (C) SDS-PAGE analysis of purified e04 IgG. (D) Binding profile of e04 IgG and mouse IL-38 determined by biolayer interferometry. (E) Crystal structure of Fab E04 binding to recombinant IL-38. […] (F) Tumor growth was monitored when the first tumor reached 0.6 cm in diameter. […] (I) The overall immune cell profile (n=6), (J) γδ T-cell subsets (n=5–6) and (K) intracellularly produced cytokines (n=10–11) were determined by flow cytometry after 5 weeks of treatment. (L) Representative images of PyMT tumors stained for CD8, CD4 and CD3 and (M) quantification of indicated cells is shown. […] Data are shown as means±SEM. *p<0.05, **p<0.01, ***p<0.001; p values were calculated using unpaired multiple t-tests with FDR correction. […]"}, "PyMT tumors [4]": {"tested_on": "PyMT tumors", "assay": "IL-38 neutralization in PyMT mammary carcinoma model", "assay_type": "in vivo, mouse", "from_the_text": "The C57BL/6N IL-38 knockout (KO) strain was previously described.[10] For the polyoma virus middle T oncoprotein (PyMT) model, IL-38 KO mice were crossed with the PyMT mammary carcinoma strain, previously bred into a C57BL/6 background.[19] Only female PyMT mice were used. Tumor development in PyMT wildtype (WT) versus IL-38 KO mice was monitored once a week for up to 8 weeks, starting at 12 weeks using electronic calipers. For IL-38 neutralization, PyMT WT mice were intraperitoneally (i.p.) injected with 100 µg of either anti-IL-38 antibody (e04, in-house generated) or IgG1 (Human IgG1, Bio X Cell) isotype control. For CD8+ T cell depletion, PyMT WT mice were injected with 100 µg of anti-IL-38 antibody (e04) in combination with either 250 µg of anti-CD8 antibody (anti-mouse CD8α, Bio X Cell) or IgG2b (rat IgG2b, Bio X Cell) isotype control. In both experiments, the treatment started once the first tumor reached a size of 0.6 cm in diameter. The antibodies were injected once a week for 5 weeks. In the therapeutic model of chemoresistance, PyMT WT mice were i.p. injected with 5 mg/kg of doxorubicin (Teva Pharma) in combination with either IgG1 isotype control or anti-IL-38 antibody. The mice were treated with five once-weekly cycles of chemotherapy once the first tumor reached a size of 1.0 cm in diameter. For γδ T-cell receptor (TCR) neutralization, mice were separated into four groups, in which PyMT WT and IL-38 KO mice were treated with either anti-γδ TCR antibody (UC7-13D5, Bio X Cell) or IgG (polyclonal Armenian hamster, Bio X Cell) isotype control once a week for 5 weeks. Mice were i.p. injected once with 500 µg of antibodies, followed by 4 weekly injections of 200 µg.[20] The treatment started at week 13 and tumor growth was monitored once a week. Group sizes were determined based on prior experience with the model. No exclusion criteria were defined and no animals were excluded. Due to the nature of the model (treatment start for every single animal depends on individual parameters), simple randomization (no confounder minimization) was done and the experimenters were not blinded. Data analysis was done in a blinded manner. Animals were housed in groups at the Zentrale Forschungseinrichtung (animal testing facility), Faculty of Medicine, Goethe University Frankfurt. […]\nas §1"}}, "data": [{"molecule": "C[C@H](NC(=O)Cc1cc(F)cc(F)c1)C(=O)N[C@H](C(=O)OC(C)(C)C)c1ccccc1", "note": "[DAPT]", "values": [{"measurement": "cDC1-induced IFN-γ production by CD8+ T cells", "setting": "CD8+ T cells; cytometric bead array days 3, 5 and 7", "result": "strongly inhibited"}, {"measurement": "cDC1-induced proliferation of CD8+ T cells", "setting": "CD8+ T cells; flow cytometry at day 7", "result": "strongly inhibited"}]}, {"molecule": "COc1cccc2c1C(=O)c1c(O)c3c(c(O)c1C2=O)C[C@@](O)(C(=O)CO)C[C@@H]3O[C@H]1C[C@H](N)[C@H](O)[C@H](C)O1", "note": "[doxorubicin]", "values": [{"measurement": "IL-38 expression in the tumor", "setting": "PyMT tumors [1]; Il1f10 mRNA by quantitative PCR, PyMT WT mice", "result": "increased IL-38 expression in the tumor"}, {"measurement": "Tumor progression", "setting": "PyMT tumors [1]; late-stage setting, start at tumor size 1 cm, doxorubicin 5 mg/kg i.p., five once-weekly cycles, antibody 100 µg/mouse", "result": "did not"}]}, {"molecule": "B1", "values": [{"measurement": "Kd", "setting": "[2]", "result": 6.7, "unit": "nM"}]}, {"molecule": "B2", "values": [{"measurement": "Kd", "setting": "[3]", "result": 0.68, "unit": "nM"}]}, {"molecule": "B3", "values": [{"measurement": "Effect on IL-38 inhibition of IL-17 production by γδ T cells", "setting": "murine IL-38", "result": "neutralized the inhibitory effect of IL-38 on IL-17 production by γδ T cells"}]}, {"molecule": "B4", "values": [{"measurement": "Expression of the PD-1/PD-L1 immune checkpoint in tumors", "setting": "PyMT tumors [4]; CD8+ T cells, macrophages, tumor cells, flow cytometry", "result": "did not observe an impact"}, {"measurement": "Tumor development", "setting": "PyMT tumors [4]; PyMT WT mice, 100 µg i.p. once a week for 5 weeks, start at first tumor 0.6 cm, vs IgG1 isotype", "result": "marked delay in tumor development"}, {"measurement": "Abundance of CD8+ T cells and γδ T cells in tumors", "setting": "PyMT tumors [4]; flow cytometry after 5 weeks of treatment, vs IgG1 isotype", "result": "increased abundance of CD8+ T cells and γδ T cells in the tumors"}, {"measurement": "Cytokine-producing γδ T cells in tumors", "setting": "PyMT tumors [4]; intracellular cytokine staining, flow cytometry, after 5 weeks of treatment", "result": "IFN-γ rather than IL-17-producing γδ T cells were increased"}]}]}
